Assay results reported in patent US11517591B2, “Immunogenic peptides specific to BCMA and TACI antigens” (Dana-Farber Cancer Institute, Inc., priority 2017, dated 2022).

Key:
HLA-A2 molecule [1] = target: T1, HLA-A2 molecule (Homo sapiens, UniProt P04439, D140Y/D185E/D98H/E176V/E277Q/G131W/G231S/I119V/I121R/I166T/I218V/L300P/L318F/N151K/N90K/P208A/P217A/Q86G/Q94H/R138H/R169H/T345S); assay: HLA-A2 binding affinity assay on peptide-pulsed T2 cells (HLA-A2 up-regulation, flow cytometry MFI); conditions: for change in HLA-A2 binding affinity of heteroclitic BCMA peptide compared to native peptide: Example 12, n=3, p<0.05; for HLA-A2 binding affinity of native BCMA peptides: Example 12, six native peptides; for HLA-A2 specificity (up-regulation of HLA-A2 on T2 cells, MFI): native peptides 0-200 μg/ml, overnight, Example 3, FIGS. 2, 3; for HLA-A2 binding affinity, heteroclitic vs native peptide: Example 4, FIGS. 4 and 5; for HLA-A2 affinity of heteroclitic TACI peptide compared to native peptide: Example 13, peptide doses 50 μg/ml and 100 μg/ml
T1 construct: endogenous in cells; host or cells: T2 cell line (human B and T cell hybrid), provided by Dr. J. Molldrem
Experimental: The listed BCMA peptides were evaluated for HLA-A2-specific binding capacity using the T2 cell line. In the assay, T2 cells were washed, resuspended in serum-free AIM-V medium to a final concentration of 1×10^6 cells/ml and transferred into wells of a 24-well tissue culture plate. The cells were pulsed with different concentrations of respective BCMA peptide (0-200 μg/ml) plus 3 μg/ml human β2-microglobulin (Sigma) and incubated at 37° C., 5% CO2 in humidified air. Following overnight incubation, the cells were washed, stained with mouse anti-human HLA-A2-FITC mAb for 15 minutes at 4° C., washed and analyzed using a FACSort™ flow cytometer with CellQuest™ v2.1 software (Becton Dickinson, San Jose, Calif.). […] Among the BCMA peptides evaluated, “#4. […] (FIG. 2).
(§1) T2 cells were pulsed overnight with various doses of peptide plus β2-microglobulin (3 μg/ml) (Sigma, St Louis, Mo.). Following overnight incubation, the cells were stained with HLA-A2-PE mAb and analyzed using a FACSCanto™ flow cytometer (BD). Peptide/HLA-A2 complex stability was measured on peptide loaded T2 cells at 0, 2, 4, 6 and 14 hours post-brefeldin A treatment by staining with HLA-A2-PE mAb and flow cytometric analysis.
(§2) T2 cells were pulsed overnight with various concentrations of peptide plus β2-microglobulin (3 μg/ml) (Sigma, St Louis, Mo.). Following overnight incubation, the cells were stained with HLA-A2-PE mAb and analyzed using a FACSCanto™ flow cytometer (BD). The stability of peptide/HLA-A2 complex binding was measured on peptide loaded T2 cells at 0, 2, 4, 6 and 14 hours post-brefeldin A treatment followed by staining with HLA-A2-PE mAb and flow cytometric analysis.

tumor cells = assay: Combination of peptide stimulation/vaccination with immune modulatory drugs, peptide-specific CTL activity; format: cell-based, human; conditions: in combination with XBP1/CD138/CS1 peptide stimulation/vaccination
From the text: Even in patients with refractory MINI relapsing after allotransplantation, long-lasting responses have been achieved with the infusion of donor lymphocytes (DLI). These early encouraging results of DLI have provided the framework for evaluation of active-specific immunotherapy approaches to treat MM. […] The success of vaccination depends on selection of the appropriate patient population, targeting antigens expressed selectively on tumor, and utilizing combination approaches to effectively induce and maintain antigen-specific memory anti-tumor immune responses. […] Importantly, these effects were confined primarily to antigen-specific CD45RO^+ memory CTL, with the most robust increases in IFN-γ and granzyme B production and CD8^+ T cell proliferation in response to tumor cells observed mainly within the specific CM subset.

HLA-A2 molecule [2] = target: T1, HLA-A2 molecule; assay: Peptide/HLA-A2 complex stability on peptide-loaded T2 cells post-brefeldin A; format: binding
Experimental: The native and heteroclitic BCMA and TACI peptides were examined for HLA-A2 binding stability using the T2 cell line. T2 cells were pulsed with the respective peptide. After overnight incubation, the cells were washed to remove unbound peptide; they were evaluated for binding affinity as shown above and stability as following. The cells were incubated with 10 μg/ml Brefeldin A (Sigma) at 37° C. and 5% CO2 for 1 hour to block cell surface expression of newly synthesized HLA-A2 molecules. Peptide/HLA-A2 binding stability was evaluated at 0, 2, 4, 6 and 18 hours post-Brefeldin A treatment. Following the incubation period, the cells were harvested, washed, stained with mouse anti-human HLA-A2-FITC mAb and analyzed by flow cytometry. […] Therefore, the Heteroclitic #4 BCMA72-80 (YLMFLLRKI (SEQ ID NO: 13)) and Heteroclitic #3. TACI154-162 (YLSADQVAL (SEQ ID NO: 16) peptides were selected for further evaluation of their immunogenic potential to generate MM-specific cytotoxic T cells (CTLs).
as §1, §2

[3] = tested on: CD3+ T cells obtained from HLA-A2+ donors; assay: Induction and phenotypic analysis of peptide-specific CTL by repeated peptide stimulation; format: cell-based, human
Experimental: The peptide-specific CTL were generated from different HLA-A2^+ normal donors for the evaluation of the functional activities targeting MM cell lines. To generate the peptide-specific CTL, mature dendritic cells (mDC) generated from the same donor were resuspended in serum-free AIM-V media and pulsed with 50 μg/ml of the Heteroclitic #4 BCMA72-80 (YLMFLLRKI (SEQ ID NO: 13)) peptide or “Heteroclitic #3 TACI154-162 (YLSADQVAL (SEQ ID NO: 16))” peptide, overnight at 37° C., 5% CO2 in humidified air. The peptide-pulsed mDC were washed, counted, irradiated at 10 Gy and used to prime CD3^+ T cells at a 1:20 antigen-presenting cells/peptide-to-CD3^+ T cell ratio in AIM-V media supplemented with 10% human AB serum. […] To maintain the T cells ex vivo, IL-2 (50 U/ml) was added to the cultures two days after the second stimulation. Control T cell cultures were maintained under the same culture conditions in the presence of IL-2 (50 U/ml), but without peptide stimulation. Phenotype of the resulting CTL was evaluated one week after each cycle of peptide stimulation. […] The BCMA peptide-specific CTL cultures contained a higher percentage of CD8^+ T cells (˜80%) upon 4 cycle of peptide stimulation compared to non-peptide stimulated control T cells (˜20%) (FIGS. 8A-8C).
Antigen-specific CTL can be phenotypically identified as activated/memory T cells from naïve T cells by their expression of distinct cell surface antigens. The phenotype of the BCMA-CTL were examined as potential effector cells by analyzing the phenotype of naïve and memory cells. BCMA peptide-specific CTL were generated by repeated stimulation of HLA-A2^+ normal donor's CD3^+ T cells weekly with antigen-presenting cells pulsed with 50 μg/ml heteroclitic BCMA72-80 (YLMFLLRKI (SEQ ID NO: 13)). One week after each peptide stimulation, the resulting CTL were evaluated for their phenotypic profile by flow cytometry.
BCMA peptide-specific CTL (BCMA-CTL) were generated ex vivo by repeated stimulation of CD3^+ T cells obtained from HLA-A2^+ donors with peptide-pulsed antigen-presenting cells (APC). In brief, peptide (50 μg/ml)-pulsed APC were irradiated (10 Gy) and used to stimulate T cells at a 1 APC/peptide: 20 T cell ratio. The T cell cultures were restimulated every 7 days and maintained in AIM-V medium supplemented with 10% human AB serum (BioWhittaker) in the presence of IL-2 (50 units/ml).
Phenotypic characterization was performed on BCMA-CTL after staining with Live/Dead Aqua stain kit and fluorochrome conjugated anti-human mAbs and Tetramer-PE. Alternatively, the MM and breast cancer cell lines were stained with fluorochrome-conjugated BCMA or HLA-A2 mAb. After staining, the cells were washed, fixed in 2% paraformaldehyde, and analyzed by flow cytometry.
TACI peptide-specific CTL (TACI-CTL) were generated ex vivo by repeated stimulation of enriched CD3^+ T cells obtained from HLA-A2^+ donors with peptide-pulsed antigen-presenting cells (APC). In brief, peptide (50 μg/ml)-pulsed APC were irradiated (10 Gy) and used to stimulate T cells at a 1:20 APC/peptide-to-T cell ratio. The T cell cultures were restimulated every 7 days and maintained in AIM-V medium supplemented with 10% human AB serum (BioWhittaker) in the presence of IL-2 (50 units/ml).
Phenotypic characterization was performed on the MM target cells to conform TACI expression. Phenotypic characterization was performed on the TACI-CTL after staining with Live/Dead Aqua stain kit and fluorochrome conjugated anti-human mAbs. After staining, the cells were washed, fixed in 2% paraformaldehyde, and analyzed by flow cytometry.

[4] = tested on: patients with smoldering MM (SMM); assay: Clinical trials of XBP1/CD138/CS1 multipeptide vaccine in smoldering MM; format: in vivo, human; conditions: multipeptide vaccine in combination with lenalidomide
From the text: Due to the encouraging preclinical results, the XBP1/CD138/CS1 multipeptide vaccine has been evaluated, alone and in combination with lenalidomide, in clinical trials to treat patients with smoldering MM (SMM), as well as in combination with anti-PD1 in clinical trials to treat patients with triple negative breast cancer. […] Although stable disease and responses have been observed in SMM, randomized trials are needed to assess whether time to progression from SMM to active disease can be prolonged by the peptide vaccination.

[5] = after 3 cycles of peptide stimulation
[6] = after 4 cycles of peptide stimulation

“YQNEYFDSL [heteroclite BCMA9-17, heteroclitic BCMA peptide]” was tested, and the “change in HLA-A2 binding affinity of heteroclitic BCMA peptide compared to native peptide” value (HLA-A2 molecule [1]) was “did not alter its HLA-A2 affinity status”.

`O=C(CCCCCCNC(=O)c1cnc(N(c2ccccc2)c2ccccc2Cl)nc1)NO` [ACY241] was tested, and the “peptides-specific CTL activities against tumor cells” value (tumor cells) was “enhanced the peptides-specific CTL activities against tumor cells”.

For “VLMFLLRKI [BCMA72-80 (VLMFLLRKI), native BCMA peptide]”, the “HLA-A2 binding affinity of native BCMA peptides” value (HLA-A2 molecule [1]) was “highest HLA-A2 binding affinity in a dose-dependent manner” and the “HLA-A2 specificity (up-regulation of HLA-A2 on T2 cells, MFI)” value (“HLA-A2 specificity” for short) (HLA-A2 molecule [1]) was “highest level of HLA-A2 specificity”.

With “AILWTCLGL [BCMA54-62 (AILWTCLGL), native BCMA peptide]” the “HLA-A2 binding affinity of native BCMA peptides” value (HLA-A2 molecule [1]) was “highest HLA-A2 binding affinity in a dose-dependent manner” and the “HLA-A2 specificity” value (HLA-A2 molecule [1]) was “second highest level of the specificity”.

In the case of “TLGLCLCAV [TACI166-174 (TLGLCLCAV), native TACI peptide]”, the “HLA-A2 affinity of native TACI peptides” value (HLA-A2 molecule [1]; Example 13, six native peptides) is reported as “highest level of affinity” and the “HLA-A2 specificity” value (HLA-A2 molecule [1]) is reported as “highest level”.

“YLSADQVAL [heteroclitic TACI154-162, heteroclitic TACI peptide]” was tested, and the “HLA-A2 binding affinity, heteroclitic vs native peptide” value (HLA-A2 molecule [1]) was “increased from their native peptide”, the “HLA-A2 affinity of heteroclitic TACI peptide compared to native peptide” value (“HLA-A2 affinity … compared to native peptide” for short) (HLA-A2 molecule [1]) was “greatly enhanced affinity from its native form” and the “HLA-A2 binding stability, heteroclitic vs native peptide” value (HLA-A2 molecule [2]; 50 ug/ml, 0, 2, 4, 6 and 18 hours post-Brefeldin A, Example 4, FIGS. 6 and 7) was “significant improvement in their HLA-A2 affinity at all the time points evaluated”. For the same compound, the “HLA-A2 binding affinity (time=0) and stability compared to native peptide” value (HLA-A2 molecule [2]; TACI peptides 50 μg/ml, 2, 4, 6 and 18 hours) was “highest HLA-A2 binding affinity (time=0) and stability (2, 4, 6 and 18 hours)”, the “CM CD8+ T cells” value [3, 5] was 47.8% and the “EM CD8+ T cells” value [3, 5] was 52.4%. For the same compound, the “Naïve CD8+ T cells” value [3, 5] was 2.2%, the “CM CD8+ T cells” value [3, 6] was 24.4% and the “EM CD8+ T cells” value [3, 6] was 74.1%. For the same compound, the “Naïve CD8+ T cells” value [3, 6] was 0.72%, the “frequency of effector memory (CD45RO+/CCR7-) CD3+CD8+ T cells” value [3, 6] was “increased” and the “CM CD8+ T cells” value ([3]; after 5 cycles of stimulation) was 7.36%. For the same compound, the “EM CD8+ T cells” value ([3]; after 5 cycles of stimulation) was 69.7% and the “Naïve CD8+ T cells” value ([3]; after 5 cycles of stimulation) was 0.57%.

For `Nc1cccc2c1CN(C1CCC(=O)NC1=O)C2=O` (stereo not drawn) [lenalidomide], the “peptides-specific CTL activities against tumor cells” value (tumor cells) was “enhanced the peptides-specific CTL activities against tumor cells” and the “CD8+ T cells with tetramer-positivity and IFN-γ production” value [4] was “triggered higher mean fold increases in CD8^+ T cells with tetramer-positivity and IFN-γ production”.

With “SQNEYFDSL [BCMA9-17 (SQNEYFDSL), native BCMA peptide]” the “HLA-A2 binding affinity of native BCMA peptides” value (HLA-A2 molecule [1]) was “non-HLA-A2 specific”.

In the case of “YLGLCLCAV [heteroclitic TACI166-174, heteroclitic TACI peptide]”, the “HLA-A2 affinity … compared to native peptide” value (HLA-A2 molecule [1]) is reported as “no significant improvement in HLA-A2 affinity”.

“YLVAVACFL [heteroclitic TACI178-186, heteroclitic TACI peptide]” was tested, and the “HLA-A2 affinity … compared to native peptide” value (HLA-A2 molecule [1]) was “no significant improvement in HLA-A2 affinity”.

“YILWTCLGL [heteroclitic hBCMA54-62, heteroclitic BCMA peptide]” was tested, and the “HLA-A2 binding affinity, heteroclitic vs native peptide” value (HLA-A2 molecule [1]) was “increased from their native peptide”, the “change in HLA-A2 binding affinity of heteroclitic BCMA peptide compared to native peptide” value (HLA-A2 molecule [1]) was “highest increase in HLA-A2 binding affinity” and the “HLA-A2 stability of heteroclitic vs native BCMA peptide” value (HLA-A2 molecule [2]; Example 12) was “further enhanced”.
